Where a chain is given by its changes, count along the chain named.
B1: NRC3_wobSeed92_DR3_A9G_o1 (dsDNA)
DNA 1: GCAGAATGGGGTTATTAAGATCAGGGAATTGCGGTCGCGATTGACAGCGTAGAATGAAGG
DNA 2: CCTTCATTCTACGCTGTCAATCGCGACCGCAATTCCCTGATCTTAATAACCCCATTCTGC
B2: NRC3_wobSeed2_DR0_C4A_o1 (dsDNA)
DNA 1: GCCATAGTTGGTCAAGGTCACACACGCTATAGGTACGCGATTGACAGCGTAGAATGAAGG
DNA 2: CCTTCATTCTACGCTGTCAATCGCGTACCTATAGCGTGTGTGACCTTGACCAACTATGGC
B3: NRC3_wobSeed124_DR5_T27C_o1 (dsDNA)
DNA 1: GCCCTACTGGGCCATTCAGAGGTCATCGATCATATGGCGATTGACAGCGTAGAATGAAGG
DNA 2: CCTTCATTCTACGCTGTCAATCGCCATATGATCGATGACCTCTGAATGGCCCAGTAGGGC
B4: NRC3_wobSeed50_DR2_T9G_o1 (dsDNA)
DNA 1: GCCCTAGTGGGTCAGGAGGTCACACACCGGATATGAGCGATTGACAGCGTAGAATGAAGG
DNA 2: CCTTCATTCTACGCTGTCAATCGCTCATATCCGGTGTGTGACCTCCTGACCCACTAGGGC
B5: NRC3_wobSeed98_DR4_C29A_o1 (dsDNA)
DNA 1: GCACTAGTTGGTCAGCTGAGGTCACACAAAATTCGGGCGATTGACAGCGTAGAATGAAGG
DNA 2: CCTTCATTCTACGCTGTCAATCGCCCGAATTTTGTGTGACCTCAGCTGACCAACTAGTGC
B6: NRC3_wobSeed76_DR3_C13A_o1 (dsDNA)
DNA 1: GCCCTACTGGGCAAAAAAGGTCATTGATGCCGATAAGCGATTGACAGCGTAGAATGAAGG
DNA 2: CCTTCATTCTACGCTGTCAATCGCTTATCGGCATCAATGACCTTTTTTGCCCAGTAGGGC
B7: NRC3_wobSeed18_DR0_o1 (dsDNA)
DNA 1: GCGATACAGGGTCAAGGCCAGAGTACGCGTATTGATGCGATTGACAGCGTAGAATGAAGG
DNA 2: CCTTCATTCTACGCTGTCAATCGCATCAATACGCGTACTCTGGCCTTGACCCTGTATCGC
B8: NRC3_wobSeed2_DR0_A22G_o1 (dsDNA)
DNA 1: B2 DNA 1 with A4C, A22G
DNA 2: B2 DNA 2 with T39C, T57G
B9: NRC3_wobSeed69_DR2_A21T_o1 (dsDNA)
DNA 1: GCAGTCAAAGTTCACTAGGTTACGTAAGATTCAGCTGCGATTGACAGCGTAGAATGAAGG
DNA 2: CCTTCATTCTACGCTGTCAATCGCAGCTGAATCTTACGTAACCTAGTGAACTTTGACTGC
B10: NRC3_wobSeed58_DR2_C5G_o1 (dsDNA)
DNA 1: GCATGGAAAGGTCGTGAGGTGAGTATACAGAAAGGCGCGATTGACAGCGTAGAATGAAGG
DNA 2: CCTTCATTCTACGCTGTCAATCGCGCCTTTCTGTATACTCACCTCACGACCTTTCCATGC
B11: NRC3_wobSeed74_DR3_G7C_o1 (dsDNA)
DNA 1: GCTCTACTTGGTCACGGAGGTCACACACGACGGGTAGCGATTGACAGCGTAGAATGAAGG
DNA 2: CCTTCATTCTACGCTGTCAATCGCTACCCGTCGTGTGTGACCTCCGTGACCAAGTAGAGC
B12: NRC3_wobSeed125_DR5_G17T_o1 (dsDNA)
DNA 1: GCCCTTACGGGTCACTTACAGGTTATAGCATTTGGAGCGATTGACAGCGTAGAATGAAGG
DNA 2: CCTTCATTCTACGCTGTCAATCGCTCCAAATGCTATAACCTGTAAGTGACCCGTAAGGGC
B13: NRC3_wobSeed98_DR4_A19G_o1 (dsDNA)
DNA 1: B5 DNA 1 with A19G, A29C
DNA 2: B5 DNA 2 with T32G, T42C
B14: NRC3_wobSeed93_DR3_T17A_o1 (dsDNA)
DNA 1: GCAGTCAAAGTTCATCAAGGTAACGTAAGATATGCTGCGATTGACAGCGTAGAATGAAGG
DNA 2: CCTTCATTCTACGCTGTCAATCGCAGCATATCTTACGTTACCTTGATGAACTTTGACTGC
B15: NRC3_wobSeed74_DR3_G10C_o1 (dsDNA)
DNA 1: B11 DNA 1 with C7G, G10C
DNA 2: B11 DNA 2 with C51G, G54C
B16: NRC3_wobSeed58_DR2_A25T_o1 (dsDNA)
DNA 1: B10 DNA 1 with G5C, A25T
DNA 2: B10 DNA 2 with T36A, C56G
B17: NRC3_wobSeed21_DR0_A15T_o1 (dsDNA)
DNA 1: GCCGTCAAAGTTCATGGTAACGTAACAGAAAGCAGCGCGATTGACAGCGTAGAATGAAGG
DNA 2: CCTTCATTCTACGCTGTCAATCGCGCTGCTTTCTGTTACGTTACCATGAACTTTGACGGC
B18: NRC3_wobSeed27_DR1_C4G_o1 (dsDNA)
DNA 1: GCAGTCGGAGGACAAAGGTCAGAGCTACGCCAGTGAGCGATTGACAGCGTAGAATGAAGG
DNA 2: CCTTCATTCTACGCTGTCAATCGCTCACTGGCGTAGCTCTGACCTTTGTCCTCCGACTGC
B19: NRC3_wobSeed4_DR0_A14G_o1 (dsDNA)
DNA 1: GCCCTACTGGGCCGAGGTCATTGATCAGTCAAAGCAGCGATTGACAGCGTAGAATGAAGG
DNA 2: CCTTCATTCTACGCTGTCAATCGCTGCTTTGACTGATCAATGACCTCGGCCCAGTAGGGC
B20: NRC3_wobSeed50_DR2_C4T_o1 (dsDNA)
DNA 1: B4 DNA 1 with C4T, G9T
DNA 2: B4 DNA 2 with C52A, G57A
B21: NRC3_wobSeed1_DR0_T12C_o1 (dsDNA)
DNA 1: GCCAAACTAGGCCAAGGTCAAAGTCGGTTTGTGCCAGCGATTGACAGCGTAGAATGAAGG
DNA 2: CCTTCATTCTACGCTGTCAATCGCTGGCACAAACCGACTTTGACCTTGGCCTAGTTTGGC
B22: NRC3_wobSeed124_DR5_T26C_o1 (dsDNA)
DNA 1: B3 DNA 1 with T26C, C27T
DNA 2: B3 DNA 2 with G34A, A35G
B23: NRC3_wobSeed50_DR2_T8A_o1 (dsDNA)
DNA 1: B4 DNA 1 with T8A, G9T
DNA 2: B4 DNA 2 with C52A, A53T
B24: NRC3_wobSeed116_DR4_G26T_o1 (dsDNA)
DNA 1: GCAGAATGAGGTTACCAAAGATCAGTGAAACGCTTGGCGATTGACAGCGTAGAATGAAGG
DNA 2: CCTTCATTCTACGCTGTCAATCGCCAAGCGTTTCACTGATCTTTGGTAACCTCATTCTGC
B25: NRC3_wobSeed130_DR5_C17G_o1 (dsDNA)
DNA 1: GCCTCGAAAGGTCGTGGTCAGGTGAGTATACCAAACGCGATTGACAGCGTAGAATGAAGG
DNA 2: CCTTCATTCTACGCTGTCAATCGCGTTTGGTATACTCACCTGACCACGACCTTTCGAGGC
B26: NRC3_wobSeed65_DR2_G27T_o1 (dsDNA)
DNA 1: GCATATGTAGGTTATCGGGTCATTCATTTTGCGCATGCGATTGACAGCGTAGAATGAAGG
DNA 2: CCTTCATTCTACGCTGTCAATCGCATGCGCAAAATGAATGACCCGATAACCTACATATGC
B27: NRC3_wobSeed116_DR4_A6G_o1 (dsDNA)
DNA 1: B24 DNA 1 with A6G, T26G
DNA 2: B24 DNA 2 with A35C, T55C
B28: NRC3_wobSeed4_DR0_T25C_o1 (dsDNA)
DNA 1: B19 DNA 1 with G14A, T25C
DNA 2: B19 DNA 2 with A36G, C47T
B29: NRC3_wobSeed125_DR5_G22C_o1 (dsDNA)
DNA 1: B12 DNA 1 with T17G, G22C
DNA 2: B12 DNA 2 with C39G, A44C
B30: NRC3_wobSeed65_DR2_T15C_o1 (dsDNA)
DNA 1: B26 DNA 1 with T15C, T27G
DNA 2: B26 DNA 2 with A34C, A46G
B31: NRC3_wobSeed74_DR3_T8C_o1 (dsDNA)
DNA 1: B11 DNA 1 with C7G, T8C
DNA 2: B11 DNA 2 with A53G, G54C
B32: NRC3_wobSeed58_DR2_T26C_o1 (dsDNA)
DNA 1: B10 DNA 1 with G5C, T26C
DNA 2: B10 DNA 2 with A35G, C56G
B33: NRC3_wobSeed82_DR3_T25A_o1 (dsDNA)
DNA 1: GCATCGAAAGGTCGACGAGGTGAGAATACACCGTTTGCGATTGACAGCGTAGAATGAAGG
DNA 2: CCTTCATTCTACGCTGTCAATCGCAAACGGTGTATTCTCACCTCGTCGACCTTTCGATGC

Target: LXRb:RXRa (Homo sapiens, UniProt P55055;P19793 full;full)
Assay: no ligand; PBM; 270 nM : 90 nM RXRa; PBS pH 7.4, 2% milk, 0.02% Triton X-100, 1 mM DTT, BSA, 0.4 mg/ml salmon testes DNA
Conditions: tags: His kept;His cleaved; copies: 1;1; label: surface-attached array probe
Outline: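 The probes on custom Agilent 4×180K protein-binding microarrays were double-stranded, with 34-nt variable regions bearing direct-repeat seeds, single-nucleotide variants, half-site ablations and random human genomic background sequences. Incubation lasted 1 h with ligand-free nuclear receptor dimers in PBS pH 7.4, 2% milk, 0.02% Triton X-100, 1 mM DTT, 0.2 mg/mL BSA and 0.4 mg/ml salmon testes DNA. Antibodies against each partner (one per run) detected bound dimers, and fluorescence scans were regression-normalized. Binding z-scores take the random background probes as reference.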

Sequence of LXRb:RXRa (P55055 whole entry, chain 1 of 2): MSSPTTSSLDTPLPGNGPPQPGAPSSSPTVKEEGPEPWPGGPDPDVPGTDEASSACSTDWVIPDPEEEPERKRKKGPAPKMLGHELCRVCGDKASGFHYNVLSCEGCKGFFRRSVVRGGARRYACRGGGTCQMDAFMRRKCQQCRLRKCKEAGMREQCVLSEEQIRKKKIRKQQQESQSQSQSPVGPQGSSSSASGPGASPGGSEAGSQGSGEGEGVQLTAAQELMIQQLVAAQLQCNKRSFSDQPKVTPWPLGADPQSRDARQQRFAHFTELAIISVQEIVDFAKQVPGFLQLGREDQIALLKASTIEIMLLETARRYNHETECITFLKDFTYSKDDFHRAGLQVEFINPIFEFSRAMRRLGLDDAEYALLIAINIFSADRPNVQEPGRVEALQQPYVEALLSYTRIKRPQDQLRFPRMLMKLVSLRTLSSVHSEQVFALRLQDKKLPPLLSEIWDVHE
Sequence of LXRb:RXRa (P19793 whole entry, chain 2 of 2): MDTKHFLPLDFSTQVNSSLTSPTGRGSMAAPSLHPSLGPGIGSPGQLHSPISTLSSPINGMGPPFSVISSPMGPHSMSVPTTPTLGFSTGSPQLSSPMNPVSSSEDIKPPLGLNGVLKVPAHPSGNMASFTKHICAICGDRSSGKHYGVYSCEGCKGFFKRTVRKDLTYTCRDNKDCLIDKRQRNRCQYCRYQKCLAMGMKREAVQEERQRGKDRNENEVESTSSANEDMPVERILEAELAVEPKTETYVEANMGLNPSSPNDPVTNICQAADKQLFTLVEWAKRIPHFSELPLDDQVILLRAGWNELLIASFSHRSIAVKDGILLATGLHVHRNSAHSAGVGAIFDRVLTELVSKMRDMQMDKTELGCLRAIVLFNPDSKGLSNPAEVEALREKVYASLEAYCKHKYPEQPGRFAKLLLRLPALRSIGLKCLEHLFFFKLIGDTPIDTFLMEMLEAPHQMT

Row | Binder | binding signal
1 | B1 | 3.86 PBM z-score against 500 random probes
2 | B2 | 3.81 PBM z-score against 500 random probes
3 | B3 | 3.78 PBM z-score against 500 random probes
4 | B4 | 3.76 PBM z-score against 500 random probes
5 | B5 | 3.75 PBM z-score against 500 random probes
6 | B6 | 3.73 PBM z-score against 500 random probes
7 | B7 | 3.7 PBM z-score against 500 random probes
8 | B8 | 3.68 PBM z-score against 500 random probes
9 | B9 | 3.64 PBM z-score against 500 random probes
10 | B10 | 3.62 PBM z-score against 500 random probes
11 | B11 | 3.61 PBM z-score against 500 random probes
12 | B12 | 3.58 PBM z-score against 500 random probes
13 | B13 | 3.54 PBM z-score against 500 random probes
14 | B14 | 3.53 PBM z-score against 500 random probes
15 | B15 | 3.52 PBM z-score against 500 random probes
16 | B16 | 3.5 PBM z-score against 500 random probes
17 | B17 | 3.49 PBM z-score against 500 random probes

Row | Binder | binding signal
18 | B18 | 3.47 PBM z-score against 500 random probes
19 | B19 | 3.45 PBM z-score against 500 random probes
20 | B20 | 3.43 PBM z-score against 500 random probes
21 | B21 | 3.41 PBM z-score against 500 random probes
22 | B22 | 3.39 PBM z-score against 500 random probes
23 | B23 | 3.37 PBM z-score against 500 random probes
24 | B24 | 3.35 PBM z-score against 500 random probes
25 | B25 | 3.33 PBM z-score against 500 random probes
26 | B26 | 3.32 PBM z-score against 500 random probes
27 | B27 | 3.28 PBM z-score against 500 random probes
28 | B28 | 3.2 PBM z-score against 500 random probes
29 | B29 | 3.19 PBM z-score against 500 random probes
30 | B30 | 3.17 PBM z-score against 500 random probes
31 | B31 | 3.16 PBM z-score against 500 random probes
32 | B32 | 3.15 PBM z-score against 500 random probes
33 | B33 | 3.13 PBM z-score against 500 random probes
